From the nanobody polyreactivity screen of Harvey et al. (2022)

Assay: yeast display, Sf9 membrane polyspecificity reagent, FACS + sequencing; frameworks hold sequencing errors
Summary of the method: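 Sorting gates, low and high (top ~1%), were placed on anti-HA fluorescence to track expression and on streptavidin fluorescence to track reagent binding. A clone's polyreactivity label is taken from the gate it came out of. The reagent was 10% biotinylated, detergent-solubilized Sf9 membrane, applied for 1 hour at 4 °C to galactose-induced yeast display cells.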

| Sequence | polyreactivity (PSR sort gate) |
| --- | --- |
| QVQLVESGGGLVQAGGSLRLSCAASGSIFGYYAMGWYRQAPGTERELVAAINSDGSTDYADSVKGRFTISRDNAKNTVYLQMNSLKPEDTAVYYCATRYYSIFTFFISYTYDYWGQGTQVTVSS | low polyreactivity |
| QVQLVESGGGLVQAGGSLRLSCAASGSIFGYYAMGWYRQEPGKERELVAAITRSGGSTYYADSVKGRFTISRDNAKNPVYLQMNSLKPEDTAVYYCNAVRYAVRLPAFPGYDYWGQGTQVTVSS | high polyreactivity |
| QVQLVESGGGLVQAGGSLRLSCAASGSIFGYYSMGWYRQAPGKERELVAAISRSGTRTYYADSVKGRFTISRDNAKNTVYVQMNSLKPEDTAVYYCNAVQQYYGTWGYGYWGQGTQVSVSS | high polyreactivity |
| QVQLVESGGGLVQAGGSLRLSCAASGSIFGYYTMGWYRQAAGKERELVAAITLDTGNTYYADSVKGRLTITRDNAKNTVYLQMNSLKPEDTAVYYCNTDYYSGYIARWSFDYWGQGTQVTVSS | low polyreactivity |
| QVQLVESGGGLVQAGGSLRLSCAASGSIFGYYVMGWYRQAPGKERELVAAITKSGGSTYYADSVKGRFTISRDNAKNTVYLQKNSLKPEDTAVYYCAKRFYSTGYGRFDYWGQGTQVTVSS | high polyreactivity |
| QVQLVESGGGLVQAGGSLRLSCAASGSIFHANAMGWYRQAPGKERELVAVISQGGGSTYYADSVKGRFTISRDNAKNTVYLQMNSLKPEDTAFYYCAAYYYYSAYGDDYWGQGTQVTVSS | high polyreactivity |
| QVQLVESGGGLVQAGGSLRLSCAASGSIFHAYAMGWYRQAPGKERELDAAISYTGGTYYADSVKGRFTISRDNAKNTVYLQMNSLKPEDTAVYYCAIVTRYLHIGVPYVEFDYWGQGTQVTVSS | low polyreactivity |
| QVQLVESGGGLVQAGGSLRLSCAASGSIFHFYAMGWYRQAPGKERELVAAITSGTSTYYADSVKGRFTISRDNAKNTVYLQMNSLKPEDTAVYYCAAEASHYYYNAYPSYGGSDYWGQGTQVTVSS | low polyreactivity |
| QVQLVESGGGLVQAGGSLRLSCAASGSIFHFYVMGWYRQAPGKERELVAGISSSGGRTYYADSVKGRFTISRDNAKNTFYLQMNSLKPEDTAVYYCANDMYHSVGRYDYWGQGTQVTVSS | low polyreactivity |
| QVQLVESGGGLVQAGGSLRLSCAASGSIFHGNAMGWYRQAPGKERELVAAITARGGRTYYADSVKGRFTISRDNAKNTVYLQMNSLKPEDTAVYYCNAVHRYERDYWGQGTQVTVSS | high polyreactivity |
| QVQLVESGGGLVQAGGSLRLSCAASGSIFHGYAMGWYRQAPGKERELVAAITYSGGRTYYADSVKGRFTISRDNAKNTVYLQMNSLKPEDTAVYYCAALTRRVKKYDYWGQGTQVTVSS | high polyreactivity |
| QVQLVESGGGLVQAGGSLRLSCAASGSIFHGYTMGWYIQSPGKERELVAAISRRGDSTYYADSVKGRFTISRDNAKNTVYLQMNSLKPEDTAVYYCATVFYRTRYVPYGYWGQGTQVTVSS | low polyreactivity |
| QVQLVESGGGLVQAGGSLRLSCAASGSIFHNYDMGWYRQAPGKERELVADISRGGDTNYADSVKGRFTISRDNAKNTVYLQMNSLKPEDTAVYYCNATYWILDSPWWRETFDYWGQGTQVTVSS | low polyreactivity |
| QVQLVESGGGLVQAGGSLRLSCAASGSIFHPYTMGWYRQAPGKERELVAAISWSGGNTNYADSVNGRFTISRDNAKNTVYLQMNSLKPDDTAVYYCNKATNLSGGYDSWGQGTQVTVSS | low polyreactivity |
| QVQLVESGGGLVQAGGSLRLSCAASGSIFHPYTMGWYRQAPGKERELVAGISQSSDSTYYADSVKGRFTISRDNAKNTVYLQMNSLKPEDTAVYYCNRDNDWPLSVVEVDYWGQGTQVTVSS | low polyreactivity |
| QVQLVESGGGLVQAGGSLRLSCAASGSIFHSYAMGWYRQAPGKERELVAGITSSCDRTNYADSVKGRFTISRDNAKITVYLQMNSLKPEDNAVYYCAAVARYPKGRTRRGYGYWGQGTQVTVSS | high polyreactivity |
| QVQLVESGGGLVQAGGSLRLSCAASGSIFHTYVMGWYRQAPGKERELVASITRSGGSTYYADSVKGRFTISRDNAKKTVYLQMNSLKPEDTAVYYCAATYRTANHRYYYWGQGTQVTVSS | high polyreactivity |
| QVQLVESGGGLVQAGGSLRLSCAASGSIFHVNAMGWYRQAPGKERELVAGISDGGSTYYADSVKGRFTISRDNAKNTVYLQMNSLKPEDTAVSYCAAESEQWYSYVLSYVWEYDYWGQGTHVTVSS | low polyreactivity |
| QVQLVESGGGLVQAGGSLRLSCAASGSIFHWNAKGWYRQAPGKERELVAGITTSGGTTYYADSVKGRFTISRDNAKNTVYLQMNSLKPEDTAVYYCAARIIRWRPRWPSYGKYDYWGQGTQVTVSS | low polyreactivity |
| QVQLVESGGGLVQAGGSLRLSCAASGSIFHWYAMGWYRQAPGKERELVAAITWSGDTTYYADSVKGRFTISRDNAKNTVYLQMNSLKPEDTAVYYCAVERDDQDYDYWGQGTQVTVSS | low polyreactivity |
| QVQLVESGGGLVQAGGSLRLSCAASGSIFHYNAMGWYRQAPGKERELVAAISTSGGSTYYADSVKGRFTISRDNAKNTVYLQMNSLKPEDTAVYYCNAYHRYRRLEMYYWGQGTQVTVSS | high polyreactivity |
| QVQLVESGGGLVQAGGSLRLSCAASGSIFHYNAMGWYRQAPGKERELVARISVNGGRTYYADSVKGRFTISRDNAKNTVYLQMNSLKPEDTEVYYCAVEGVWRSFFYGYDSWGQGTQVTVSS | low polyreactivity |

| Sequence | polyreactivity (PSR sort gate) |
| --- | --- |
| QVQLVESGGGLVQAGGSLRLSCAASGSIFHYYAMGWYRPAPGKERELVAAISWSGGRTYYADSVKGRFTISRDNAKNTVYLQMNSLKPEDTAVYYCAAARGESYEFYSWGQGTQVTVSS | high polyreactivity |
| QVQLVESGGGLVQAGGSLRLSCAASGSIFIANAMGWYRQAPGKERELVATISWSGGRTYYADSVKGRFTISRDNAKNTVYLQMNSLKPEDTAVYYCAAVYGAYDSGYKYNYWGQGTQVTVSS | high polyreactivity |
| QVQLVESGGGLVQAGGSLRLSCAASGSIFIFNAMGWYRQAPGKEREFVARIRRDSSTYYADSVKGRFTISRDNAKNTVYLQMNSLKPEDTAVYYCADKRVYRRVELNSWGQGTQVTVSS | low polyreactivity |
| QVQLVESGGGLVQAGGSLRLSCAASGSIFIFYAMGWYRQAPGNERELVADITSDGASTYYADSVKGRFTISRDNAKNTVYLQMNSLKPEDTAVYYCAADYIDSSAYDYWGQGTQVTVSS | low polyreactivity |
| QVQLVESGGGLVQAGGSLRLSCAASGSIFIGNAMGWYRQAPGKERELVAVISKGGGRTYYADSVKGRFTISRDNAKNTVYLQMNSLKPEDSAVYYCNTRNPHRGDYWGQGTQVTVSS | high polyreactivity |
| QVQLVESGGGLVQAGGSLRLSCAASGSIFIGYAIGWYRQAPGKERELVAAITNGGRTYFADSVKGRFTISRDNAKNTVYLQMISLKPEDTAVYYCAAVPSQTYRRTPYLWHDYWGQGTQVTVSS | high polyreactivity |
| QVQLVESGGGLVQAGGSLRLSCAASGSIFIGYAMGWYRQAPGKERELVAAITSGSITNYADSVKGRFTISRDNAKNTVYLQMNSLKPEDTAVYYCAADIYTYLGAYYIGYYWGQGTQVTVSS | low polyreactivity |
| QVQLVESGGGLVQAGGSLRLSCAASGSIFIGYARGWYRQAPGKERELVAGISWSGGSTYYADSVKGRFSISRDNAKNTVYLQMNSLKPEDTAVYYCNADITLYYFWAWTYGYYYWGQGTQVTVSS | high polyreactivity |
| QVQLVESGGGLVQAGGSLRLSCAASGSIFILNAMGWYRQAPGKERELVAAISSSGGSTYYADSVMGRFTISRDNAKYTDYLQMNSLKPEDSAVYYCAAERNYYFLFPYDSWGQGTQVTVSS | high polyreactivity |
| QVQLVESGGGLVQAGGSLRLSCAASGSIFINNAMGWYRQAPGKERELVAAISSSGTTYYADSVKGRFTISRDNAKNSVYLQMNSLKPEDTAVYYCNARYSLHSYYCFIYDSWGQGTKVTVSS | low polyreactivity |
| QVQLVESGGGLVQAGGSLRLSCAASGSIFINYAMGWYRQAPGKERELVAAISKNGGNTYYADSVKGRFTISRDNAKNTVYLQMNSLKPEDTAVYYCNYDYWGQGTQVTVSS | low polyreactivity |
| QVQLVESGGGLVQAGGSLRLSCAASGSIFIPNAMGWYRQAPGKERELVAAISLSDTTTYYADSVKGRFTISRDNAKNTVYLKMNSLKPEDTAVYYCAADYWFYPTSPDMDYLGQGTQVTVSS | low polyreactivity |
| QVQLVESGGGLVQAGGSLRLSCAASGSIFIQYAMGWYRQAPGKERELVAAITGSGGSTYYADSVKGRFTISRDNAKNTVYLQMNSLKPEDTAVYYCATEFKRGYVGFDYWGQGTQVTVSS | low polyreactivity |
| QVQLVESGGGLVQAGGSLRLSCAASGSIFIRNAMGWYRQAPGKERELVAAITSGGNTYYADSVKGRFTISRDNAKNTVYFQMNSLKPEDTAVWGQGTQVTLSS | low polyreactivity |
| QVQLVESGGGLVQAGGSLRLSCAASGSIFISYAMGWYRQAPGKARELVAAISRSGGSTYYADSVKGRFTISRDNAKNTVYLQMNSLKPEDTAVYYCAARSYPGKAGMGYWGQGTQVTVSS | high polyreactivity |
| QVQLVESGGGLVQAGGSLRLSCAASGSIFISYAMGWYRQAPGKERELVAAISRSAGRTYYADSVKGRFTISRDNAKNTVYLQMNSLKPEDTAVYYCAASGYKNGVYTYGYWGQGTQVTVSS | high polyreactivity |
| QVQLVESGGGLVQAGGSLRLSCAASGSIFITYAMGWYRQAPGKERELVAAIRDSGDRTYYADSVKGRFTISRDKAKNTDYLQKNSLKPEDTAVYYCNARWQEPLKYDYWGQGTQVTVSS | low polyreactivity |
| QVQLVESGGGLVQAGGSLRLSCAASGSIFITYAMGWYRQAPGKERELVAAIRDSGDRTYYADSVKGRFTISRDNAKNTVYLQMNRLKPEETAVYYCNARWQEPLKYDYWGQGTQVTVSS | low polyreactivity |
| QVQLVESGGGLVQAGGSLRLSCAASGSIFIVYAMGWYRQAPGKERELVATITSGGSTNYADSVKGRFTISRDNAKNTVYLQMNSLKPEDTAVYYCATQFPPSTIYDYWGQGTQVTVSS | low polyreactivity |
| QVQLVESGGGLVQAGGSLRLSCAASGSIFIYNAMGWYRQAPGKERELVAAISSSGGSTYYADSVKGRFTISRDNAKNTVYLQMNSLKPEDTAVYYCAARTYYVRGLGGRTGMDYWGQGTQVTVSS | low polyreactivity |
| QVQLVESGGGLVQAGGSLRLSCAASGSIFIYNAMGWYRQAPGKERELVAAISSSGGSTYYADSVKGRFTISRDYAKNTVYLQLNSLKPEDTAVYYCAARTYYVRGLGGRPGMDYWGQGTHVTVSS | low polyreactivity |
